Assay results published in US12331106B2, “Anti-angiopoietin-2 antibodies that induce Tie2 activation” (Institute for Basic Science, priority 2018, dated 2025).

Key:
[1] = system: tumor vessels of LLC tumor; test: Tumor vessel perfusion (lectin) and hypoxia (Hypoxyprobe) in LLC tumors; type: in vivo, C57BL/6 mice; details: compared with Fc or Fc+Cpt
Method: To analyze the functionality of tumor vessels after treatment with 2C8H11, vessel perfusability and hypoxia status were evaluated. Before harvesting tumor mass, the mice were intravenously injected with 100 μl of DyLight™ 488-Lectin (Vector laboratory) and intraperitoneally injected with 60 mg/kg of Pimonidazole-HCl (HYPOXYPROBE™+) dissolved in PBS for 30 min before sacrifice. The mice were perfusion-fixed with 4% PFA. We obtained frozen sections from the tumor mass, which were stained with hamster anti-CD31 antibody (1:200, Millipore®) and 4.3.11.3 mouse Pacific blue-Mab (1:50, HYPOXYPROBE™+) in PBS. The sections were imaged using LSM880 confocal microscope (Zeiss), and the obtained images were analyzed using ImageJ software (http://rsb.info.nih.gov/ij) to quantify Lectin+area/CD31+area and HYPOXYPROBE™+area.
Furthermore, hypoxia, as indicated by HYPOXYPROBE™+area, was decreased in tumors treated with 2C8H11 or 2C8H11+Cpt by 72%, when compared with tumors treated with Fc or Fc+Cpt (FIG. 11C).

[2] = system: choroidal neovascularization (CNV) / choriocapillaris; test: Laser-induced CNV model, OCTA: CNV volume and choriocapillary regeneration (avascular space); type: in vivo, mice; details: for reduction of the avascular space: 5 μg intravitreal at 7 days, change from baseline
Method: To determine the effect of 2C8H11 in CNV regression and choriocapillary regeneration after establishment of CNV, Fc, VEGF-Trap, control antibody or 2C8H11 (5 μg each) was given intravitreally to the mice by the Nanoliter 2000 micro-injector (World Precision Instruments) at 7 days after laser photocoagulation. Intra-vital optical coherence tomography angiography (OCTA) was performed at 6, 14, 21, and 35 days after laser photocoagulation (FIG. 14A). The retinochoroidal layers were imaged using a prototype high-speed swept-source optical coherence tomography (OCT) system, utilizing a custom ring cavity wavelength-swept laser centered at 1048 nm with an A-scan rate of 230 kHz. OCT images were collected in a 1.7 mm×1.7 mm field of view within the retino-choroidal layer to monitor regeneration of choroidal vasculatures at the site of laser photocoagulation after intravitreal injection of reagents. […] Then, by using automatic layer flattening and segmentation algorithms, cross-sectional OCT angiograms were flattened to RPE, and en face OCT angiograms were generated by separate projection of each flattened cross-sectional OCT angiogram in three depth ranges: inner retinal, outer retinal and choroidal layers. The outer plexiform layer and Bruch's membrane were defined as the boundaries separating inner retinal, outer retinal, and choroidal layers. The density of retina and choroid vessel was automatically calculated as the proportion of measured area occupied by flowing blood vessels defined as pixels having decorrelation values above the threshold level. Avascular pixels were detected from the en face OCT angiogram representing choroidal layer by means of the image processing toolbox of MATLAB® (Math Works). Then the total volume of the avascular space surrounding the laser injury site was calculated by summing the number of avascular pixels multiplied by the volume of one pixel. In order to analyze the changing complexion of avascular space volume, serially measured values in each eye were transformed into percentage change from baseline value. […] Overall, these findings indicate that both 2C8H11 and […] promotes regeneration of the choriocapillaris, while VEGF-Trap leads to choriocapillary regression in the laser-induced CNV model.

B1: 2C8H11: humanized anti-Ang2 human IgG1 antibody from mouse 2C8; VH SEQ ID NO: 55, VL SEQ ID NO: 56 (antibody, V domains shown)
VH: QVQLVQSGAEVKKPGASVKVSCKASGYTFTSYWMHWVRQAPGQGLEWMGMIDPSDSETRLNQKFKDRVTMTRDTSTSTVYMELSSLRSEDTAVYYCARRFYYGSDWYFDVWGQGTLVTVSS
VL: DIQLTQSPSFLSASVGDRVTITCKASQDVGTAVAWYQQKPGKAPKLLIYWASTRHTGVPSRFSGSGSGTEFTLTISSLQPEDFATYYCQQYSSYPLTFGQGTKVEIK
modifications: human IgG1 constant regions; VH; VL
For B1, the “hypoxia decrease (HYPOXYPROBE+ area)” value [1] was 72%, the “increase in perfusion (Lectin+ area/CD31+ area)” value [1] was “approximately 3 fold” and the “CNV volume in outer retinas (OCTA)” value ([2]; 5 μg intravitreal at 7 days after laser photocoagulation) was “markedly reduced CNV volume”. The “reduction of the avascular space” value ([2]; 14 days after laser photocoagulation) was 30.1%, the “reduction of the avascular space” value ([2]; 21 days after laser photocoagulation) was 36.4% and the “reduction of the avascular space” value ([2]; 35 days after laser photocoagulation) was 37.0%.
